In the supplement of paper PMC9170038:

Tested on: MS2 coat protein
Assay: apparent KD of MS2 coat protein; designed switch direction (-1 OFF switch, 1 ON switch): -1; higher = weaker reporter binding
Summary of the method: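 Designed RNA switches with common flanks were made on Illumina chips by stalled E. coli RNA polymerase. Titration with SNAP-549-labelled MS2 coat protein doubled from 0.7 or 1.5 nM up to 3 µM. Apparent KD is each design's median over clusters after curve-fitting normalised fluorescence.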

[1] = input ligand: microRNA oligo, concentration not stated
[2] = Eterna round: R95, input ligand: FMN 200 uM
[3] = Eterna round: R95, input ligand: microRNA oligo, concentration not stated
[4] = Eterna round: R95, input ligand: none

Sequence | apparent KD of MS2 coat protein (input ligand: FMN 200 uM) | apparent KD of MS2 coat protein [1] | apparent KD of MS2 coat protein (input ligand: none) | apparent KD of MS2 coat protein [2] | apparent KD of MS2 coat protein [3] | apparent KD of MS2 coat protein [4]
GAGAUGCGGAUAGGAUAUGGAAGAAAAGAAGGAUUAGAAGGGUUGGUUAGAAUACAUGAGGAUCACCCAUGUGAAUCAUGAGAA [AK ExNG1-2.3] (Eterna round: R96, puzzle: Exclusion NG 1) | 99.2 nM | 81.1 nM | 128 nM | – | – | –
AAGUAUAGAGGAUAUAGUAGUUACAACAUGAGGAUCACCCAUGUUCUUCAUAACGUAGAUCUAGAAGGCUGAUAAA [EX-5 Malc#29] (puzzle: Exclusion 5) | – | – | – | 145 nM | 114 nM | 140 nM
GUUAAACAUGAGGAUCACCCAUGUAAGGAUAUGCUGAGGUAGCGCUGACGUGAAUGAAGCAGAAGGUACAAAUG [Mat - Mod of JL D64] (puzzle: Exclusion 1) | – | – | – | 66.4 nM | 93.3 nM | 62 nM
UUGAGGUAAGGAUAUAUUAGGAGCGAAGUUACUUGUUUUUUAUAGAAGGUACAUGAGGAUCACCCAUGUGAAUA [JR_Exclu4_Sub062] (puzzle: Exclusion 4) | – | – | – | – | 24.7 nM | –
CAAGCCUGAACGGCCGCUCACAUGAGGAUCACCCAUGUCACCUGUGCUAGAGGACCACAUUAAUCGCUUCGUCUUGG [Eternabot (L1) Solution 7] (Eterna round: R97, puzzle: Sensor, turn-off variant 1) | 69.8 nM | – | 88.9 nM | – | – | –
UUGUACAUAGGAUAUAGUUGUUUGUACAUGAGGAUCACCCAUGUUAUGUAUGUUUUGCUUCUAGAAGGAUGUUGUU [JR_E5_Sub004] (puzzle: Exclusion 5) | – | – | – | – | 28 nM | –
CGCCUGUGAGGAUAUUAGUAGUAGUCAGAAAAGACUAUUACUGAGAAGGUACAUGAGGAUCACCCAUGUUGGCG [Mat - Exclusion 4 - Eli Mod - D41] (Eterna round: R97, puzzle: Exclusion 4) | 14.8 nM | – | 20 nM | – | – | –
AAUAACAAGCCGAUCCUAAACAUGAGGAUCACCCAUGUGCUCGUCUUGUAAAGUACUAUCACGAAAGUGAUAGUACA (Eterna round: R96, puzzle: Sensor v3, turn-off variant 1) | 18.1 nM | 220 nM | 19.3 nM | – | – | –
GCCUAAGCAGGAUAUUCAAUAUGUCACAUGAGGAUCACCCAUGUCCAGCGAAAGCUGGAGGGAGAAGGGCUUAGGC [Mat - Exclusion 5 - Eli mod - D100] (puzzle: Exclusion 5) | – | – | – | 21.1 nM | 101 nM | 106 nM
GCCAGAGCAGGAUAUUCAUUAUAUCACAUGAGGAUCACCCAUGUCCAGCGAAAGCUGGAGGGAGAAGGGCUCUGGC [Fiskers Ex 5 - 24] (puzzle: Exclusion 5) | – | – | – | 102 nM | 225 nM | 140 nM
CGGAGCAGAGGGAGAUCCAACAUGAGGAUCACCCAUGUCUCAUAAGCUUUUUGCUCAUCUUAUUGUACCUUGGUGCU [JL ViennaUCT Edcesobi mod 5] (puzzle: Sensor v3, turn-off variant 1) | – | – | – | 37.3 nM | 15.4 nM | 46.4 nM
AGACGUUAACAGGAUAUGGCCCUGCCGCAAGCGUUAGAAGGGUUGACAUGAGGAUCACCCAUGUGUGAUAGAAG [Eternabot (L1) Solution 95] (Eterna round: R97, puzzle: Exclusion 6) | 217 nM | – | 316 nM | – | – | –
ACCAAAGCAGUAGGAUAUACGCACAUGAGGAUCACCCAUGUAGCACGUCUCCAGACACCGAAUGCGUAGAAGGACUGCGCGCAA [Eternabot solution 3] (Eterna round: R96, puzzle: Exclusion NG 2) | 7.86 nM | 4.69 nM | 17 nM | – | – | –
AGUUCAAGGAAUUCUUCUGACAUGAGGAUCACCCAUGUGCUUUGCAAGUGUUGCUCGUCGCCUAGAACGUUAAGUAA [Eternabot (Original) Solution 32] (Eterna round: R97, puzzle: Sensor, turn-off variant 1) | 158 nM | – | 225 nM | – | – | –
CAUUAUUAUCGAGGAUAUCCUAUUGUAAUACUGGGAGAAGGCGGACUCAACAUGAGGAUCACCCAUGUAAGACGGGUACUAGAU [Ex NG1 #22] (Eterna round: R96, puzzle: Exclusion NG 1) | 228 nM | 139 nM | 163 nM | – | – | –
UGAAUGUCAGAGGAUAUGCACGAUUGGACCGAGGCAGAAGGCUGAACAUGAGGAUCACCCAUGUCAAGAUCUUC [Eternabot (L1) Solution 93] (Eterna round: R97, puzzle: Exclusion 6) | 180 nM | – | 26.3 nM | – | – | –
AGAUGGCGAGGAUAUACAUGAGGAUCACCCAUGUGAAGAGAAAGAGUGAGGAAGAAAAGUAGAAGGCGCUGUCA [Mat - Exclusion 3 - Mod of Salish D29] (puzzle: Exclusion 3) | – | – | – | 897 nM | 99.7 nM | 88.2 nM

Sequence | apparent KD of MS2 coat protein (input ligand: FMN 200 uM) | apparent KD of MS2 coat protein [1] | apparent KD of MS2 coat protein (input ligand: none) | apparent KD of MS2 coat protein [2] | apparent KD of MS2 coat protein [3] | apparent KD of MS2 coat protein [4]
AGCGAUCAUGUUAGGAUAUCCAAGCAGACGCUCAAGGAGAAGGAACAUGAGGAUCACCCAUGUUUGAUCCAAAC [Usrediza] (Eterna round: R97, puzzle: Brourd's mod of Exclusion 4) | 104 nM | – | 19.7 nM | – | – | –
AAAAGGCUAGGAUAUCGCGGUAACAACAUGAGGAUCACCCAUGUGAAGGUGUCUUCUGCCCGAGAAGGAGCAGAGU [Tientixe] (puzzle: Exclusion 5) | – | – | – | 43.2 nM | 25.6 nM | 29.9 nM
GCGGAUUAUGUAGGAUAUCGGUCAGUUUCUGAUCGAGAAGGACAUGAGGAUCACCCAUGUAAAUUGCUCGCUUUGUGAGCCCGC [JL ENG1 3.63] (Eterna round: R96, puzzle: Exclusion NG 1) | 34.5 nM | 12.4 nM | 14.8 nM | – | – | –
GCCGAAAAUGUGAGGAUAUACCUAUGGAAACAUAGGUAGAAGGCACAUGAGGAUCACCCAUGUUCCUCAUCGGC [Mat - Exclusion 4 - Eli Mod - D17] (Eterna round: R97, puzzle: Brourd's mod of Exclusion 4) | 729 nM | – | 120 nM | – | – | –
CAGCUGUCAGGAUAUCGUGCAUACAACGAAAGUUCUAUGUGCGAGAAGGGACAUGAGGAUCACCCAUGUUAACG [Omei Ex4 A25] (Eterna round: R97, puzzle: Exclusion 4) | 58 nM | – | 46 nM | – | – | –
AAUAAUAGCGAGGAUAUCGUAUCGGAAACGAUACGAGAAGGCGUAACAUGAGGAUCACCCAUGUUCCUCAAUAA [Fiskers Ex 6 - 3] (Eterna round: R96, puzzle: Exclusion 6) | 354 nM | 39.8 nM | 41 nM | – | – | –
GAUUAUGCGAGCUUUAGGGACAUGAGGAUCACCCAUGUUCGUCUUAUUGGUCUGGAUACGCUAACAUACCUAAAUCU [JMF 38] (puzzle: Sensor v3, turn-off variant 1) | – | – | – | 21.5 nM | 30.6 nM | 24.8 nM
GCUAUGGGAGGAUAUACAUGAGGAUCACCCAUGUGUAGAGCAUACGCGCGCAUUAACAGUAGAAGGCCCUGCGU [Eternabot (L1) Solution 23] (Eterna round: R97, puzzle: Exclusion 3) | 50.7 nM | – | 49.4 nM | – | – | –
AGUUUACAUGAGGAUCACCCAUGUGAGGAUAUGGAUUCGCUGGCCGUAGCCAGUGGAUCCAGAAGGCGCAUGAU [JL-ex1-4.13] (Eterna round: R97, puzzle: Exclusion 1) | 401 nM | – | 86.3 nM | – | – | –
CCUCAGUCACAGGAUAUGCUCAUCUAAUGAUGAGCAGAAGGGUGAACAUGAGGAUCACCCAUGUUUACGAGGGU [Omei Ex6 E7] (Eterna round: R97, puzzle: Exclusion 6) | 407 nM | – | 555 nM | – | – | –
UACCUGAGGCAAAGCUUUAGGUAAACAUGAGGAUCACCCAUGUAGGAUAUGGUAGGCAAAGCUUACCAGAAGGACAUGAUAAUU [Mat - Exclusion NG 3 - Mod of JL - D35] (Eterna round: R96, puzzle: Exclusion NG 3) | 544 nM | 79.2 nM | 80.4 nM | – | – | –
GCAAGCUUAAUCAGUAUGAACAUGAGGAUCACCCAUGUAUAAGGUAAUCCUUUUGGGCCCUUUAUUACUCGUCUUAU [JR_STOV1_Sub028] (Eterna round: R97, puzzle: Sensor, turn-off variant 1) | 322 nM | – | 405 nM | – | – | –
UGUCUGUCAGGAUAUCCAGAAGAGAAGAAAGUAAGAUGAGUGGAGAAGGGACAUGAGGAUCACCCAUGUAAUUA [My frist] (puzzle: Exclusion 4) | – | – | – | – | 29.7 nM | –
UUUAGUUCAGGAUAUGUAGACAUUAACAUGAGGAUCACCCAUGUAGAUCCUGAAUUGGCUACAGAAGGGAGCAUUU [Mod of Brourd 10 - Jieux - Exclusion 5] (Eterna round: R97, puzzle: Exclusion 5) | 109 nM | – | 28.4 nM | – | – | –
UUACAAUGUCGCUUAUAAGCUUUUUGCUCGUCUUAUAUUACAUGAGGAUCACCCAUGUAGAUCAUGUGGCGUGACCU [JL ViennaUCT Maridi mod 8] (puzzle: Sensor v3, turn-off variant 2) | – | – | – | 264 nM | 47.9 nM | 345 nM
AAUUAAACAUAGGAUAUCGAAUUUAUUAUUUAACGAGAAGGAUGAACAUGAGGAUCACCCAUGUGGUAUCAUGG [Mat - Exclusion 6 - JL Mod - D23] (puzzle: Exclusion 6) | – | – | – | 333 nM | 197 nM | 213 nM
